± gives the uncertainty stated by the source.
Experiment: abundance fitness (aPCA) (normalised: wild type 0, dead -1); higher = more abundant; growth selection in yeast, the domain comes from the species named
Conditions: Homo sapiens
“DnaJ homolog subfamily B member 1 E62V, P25685” gave an abundance fitness of -0.218 ± 0.12.
Substance “DnaJ homolog subfamily B member 1 F45H, P25685” has an abundance fitness of -0.096 ± 0.17.
In the case of “DnaJ homolog subfamily B member 1 Y52V, P25685”, the abundance fitness is reported as -0.249 ± 0.089.
For “DnaJ homolog subfamily B member 1 Q27M, P25685”, the abundance fitness was -0.054 ± 0.14.
In the case of “DnaJ homolog subfamily B member 1 A23D, P25685”, the abundance fitness is reported as -0.852 ± 0.22.
Substance “DnaJ homolog subfamily B member 1 D53A, P25685” has an abundance fitness of -0.036 ± 0.088.
“DnaJ homolog subfamily B member 1 Y52K, P25685” gave an abundance fitness of -0.337 ± 0.13.
“DnaJ homolog subfamily B member 1 G40P, P25685” showed an abundance fitness of -0.248 ± 0.12.
“DnaJ homolog subfamily B member 1 E18M, P25685” showed an abundance fitness of -0.188 ± 0.074.
For “DnaJ homolog subfamily B member 1 E62H, P25685”, the abundance fitness was -0.351 ± 0.081.
Substance “DnaJ homolog subfamily B member 1 F45C, P25685” has an abundance fitness of -0.351 ± 0.12.
Work on “DnaJ homolog subfamily B member 1 D17W, P25685” yielded an abundance fitness of -0.142 ± 0.15.
“DnaJ homolog subfamily B member 1 G10R, P25685” gave an abundance fitness of -0.239 ± 0.066.
In the case of “DnaJ homolog subfamily B member 1 L29S, P25685”, the abundance fitness is reported as -0.138 ± 0.058.
“DnaJ homolog subfamily B member 1 P39G, P25685” gave an abundance fitness of -0.287 ± 0.16.
For “DnaJ homolog subfamily B member 1 D53P, P25685”, the abundance fitness was -0.709 ± 0.079.
“DnaJ homolog subfamily B member 1 A12L, P25685” gave an abundance fitness of -0.179 ± 0.068.
Work on “DnaJ homolog subfamily B member 1 I48G, P25685” yielded an abundance fitness of -0.615 ± 0.065.
For “DnaJ homolog subfamily B member 1 K60V, P25685”, the abundance fitness was -0.706 ± 0.11.
“DnaJ homolog subfamily B member 1 A28F, P25685” showed an abundance fitness of 0.079 ± 0.14.
In the case of “DnaJ homolog subfamily B member 1 R61S, P25685”, the abundance fitness is reported as -0.528 ± 0.068.
In the case of “DnaJ homolog subfamily B member 1 E19A, P25685”, the abundance fitness is reported as 0.022 ± 0.08.
For “DnaJ homolog subfamily B member 1 K21Y, P25685”, the abundance fitness was -0.121 ± 0.088.
Work on “DnaJ homolog subfamily B member 1 D4R, P25685” yielded an abundance fitness of -0.151 ± 0.17.
“DnaJ homolog subfamily B member 1 A12M, P25685” gave an abundance fitness of -0.139 ± 0.067.
“DnaJ homolog subfamily B member 1 A28W, P25685” showed an abundance fitness of 0.024 ± 0.11.
With “DnaJ homolog subfamily B member 1 D57W, P25685” the abundance fitness was -0.812 ± 0.2.
Substance “DnaJ homolog subfamily B member 1 D34C, P25685” has an abundance fitness of 0.009 ± 0.14.
With “DnaJ homolog subfamily B member 1 G14S, P25685” the abundance fitness was -0.126 ± 0.042.
With “DnaJ homolog subfamily B member 1 I20R, P25685” the abundance fitness was -0.832 ± 0.06.
Substance “DnaJ homolog subfamily B member 1 F45R, P25685” has an abundance fitness of -0.185 ± 0.062.
“DnaJ homolog subfamily B member 1 Y24W, P25685” showed an abundance fitness of -0.159 ± 0.079.
For “DnaJ homolog subfamily B member 1 A49Q, P25685”, the abundance fitness was -0.394 ± 0.086.
Substance “DnaJ homolog subfamily B member 1 K21W, P25685” has an abundance fitness of -0.152 ± 0.072.
“DnaJ homolog subfamily B member 1 D17G, P25685” gave an abundance fitness of -0.199 ± 0.087.
For “DnaJ homolog subfamily B member 1 D57P, P25685”, the abundance fitness was -0.715 ± 0.19.
For “DnaJ homolog subfamily B member 1 E43V, P25685”, the abundance fitness was 0.112 ± 0.062.
For “DnaJ homolog subfamily B member 1 E42Y, P25685”, the abundance fitness was -0.188 ± 0.1.
“DnaJ homolog subfamily B member 1 P58Q, P25685” gave an abundance fitness of -0.18 ± 0.097.
“DnaJ homolog subfamily B member 1 P39D, P25685” showed an abundance fitness of -0.339 ± 0.27.
“DnaJ homolog subfamily B member 1 K44N, P25685” gave an abundance fitness of -0.204 ± 0.13.
Substance “DnaJ homolog subfamily B member 1 L9I, P25685” has an abundance fitness of -0.546 ± 0.13.
“DnaJ homolog subfamily B member 1 A15Q, P25685” showed an abundance fitness of -0.648 ± 0.12.
With “DnaJ homolog subfamily B member 1 L55E, P25685” the abundance fitness was -0.752 ± 0.099.
“DnaJ homolog subfamily B member 1 D17R, P25685” gave an abundance fitness of -0.211 ± 0.084.
Work on “DnaJ homolog subfamily B member 1 S56H, P25685” yielded an abundance fitness of -0.217 ± 0.16.
In the case of “DnaJ homolog subfamily B member 1 E47A, P25685”, the abundance fitness is reported as 0.021 ± 0.088.
“DnaJ homolog subfamily B member 1 D34A, P25685” gave an abundance fitness of 0.058 ± 0.14.
“DnaJ homolog subfamily B member 1 I63H, P25685” showed an abundance fitness of -0.311 ± 0.33.
Substance “DnaJ homolog subfamily B member 1 L9S, P25685” has an abundance fitness of -0.681 ± 0.079.
Work on “DnaJ homolog subfamily B member 1 K60N, P25685” yielded an abundance fitness of -0.311 ± 0.098.
“DnaJ homolog subfamily B member 1 D65M, P25685” showed an abundance fitness of -0.162 ± 0.13.
In the case of “DnaJ homolog subfamily B member 1 E19M, P25685”, the abundance fitness is reported as -0.199 ± 0.1.
In the case of “DnaJ homolog subfamily B member 1 D53W, P25685”, the abundance fitness is reported as -0.405 ± 0.12.
For “DnaJ homolog subfamily B member 1 D17V, P25685”, the abundance fitness was -0.059 ± 0.053.
Work on “DnaJ homolog subfamily B member 1 R26L, P25685” yielded an abundance fitness of 0.068 ± 0.075.
Work on “DnaJ homolog subfamily B member 1 E42D, P25685” yielded an abundance fitness of 0.116 ± 0.11.
For “DnaJ homolog subfamily B member 1 R13P, P25685”, the abundance fitness was -0.177 ± 0.088.
In the case of “DnaJ homolog subfamily B member 1 R61I, P25685”, the abundance fitness is reported as -0.584 ± 0.13.
Substance “DnaJ homolog subfamily B member 1 K46T, P25685” has an abundance fitness of -0.451 ± 0.31.
Work on “DnaJ homolog subfamily B member 1 E47D, P25685” yielded an abundance fitness of -0.073 ± 0.13.
“DnaJ homolog subfamily B member 1 K37D, P25685” gave an abundance fitness of -0.27 ± 0.2.
“DnaJ homolog subfamily B member 1 P58T, P25685” showed an abundance fitness of -0.143 ± 0.14.
Substance “DnaJ homolog subfamily B member 1 E43I, P25685” has an abundance fitness of 0.109 ± 0.12.
“DnaJ homolog subfamily B member 1 L9A, P25685” showed an abundance fitness of -0.892 ± 0.26.
Work on “DnaJ homolog subfamily B member 1 I20H, P25685” yielded an abundance fitness of -0.948 ± 0.13.
“DnaJ homolog subfamily B member 1 D34F, P25685” gave an abundance fitness of -0.249 ± 0.1.
In the case of “DnaJ homolog subfamily B member 1 K44M, P25685”, the abundance fitness is reported as -0.134 ± 0.068.
“DnaJ homolog subfamily B member 1 Q7R, P25685” showed an abundance fitness of -0.185 ± 0.071.
With “DnaJ homolog subfamily B member 1 P58F, P25685” the abundance fitness was -0.407 ± 0.25.
For “DnaJ homolog subfamily B member 1 Y6M, P25685”, the abundance fitness was -0.806 ± 0.11.
For “DnaJ homolog subfamily B member 1 D17M, P25685”, the abundance fitness was -0.06 ± 0.089.
“DnaJ homolog subfamily B member 1 S16D, P25685” gave an abundance fitness of -0.174 ± 0.09.
“DnaJ homolog subfamily B member 1 R13Q, P25685” gave an abundance fitness of 0.048 ± 0.2.
Substance “DnaJ homolog subfamily B member 1 R59T, P25685” has an abundance fitness of 0.07 ± 0.1.
